Data on three molecules can be found in patent US20240059766A1 (VOYAGER THERAPEUTICS, published 2024).

The target of test [1] is T1, Tau191-214 phospho-peptide (pS199) (human, pS199 (phosphoserine); SCBio-4PEG in the ELISA).
T1 construct: also called pS199 peptide
Nature of the test: BLI. On the technique in general: In BLI a coated tip is dipped into the sample, and binding shifts an interference pattern.

The target in test [2] is T2, SCBio-4PEG-Peptide (Tau191-214) pS199-old (human, pS199; SCBio-4PEG at the peptide as in the table head).
T2 construct: the suffix old is not explained
As to the kind of experiment: one point ELISA. An excerpt: (§1) One-point ELISA was used to determine differential binding based on the individual phosphorylation patterns of each peptide. OD values (450 nm) were collected (as shown in Table 13), where a stronger positive signal is shown as a higher OD value, which is indicative of increased binding.
For orientation: ELISA stands for enzyme-linked immunosorbent assay.

Test [3] concerns the target T1, Tau191-214 phospho-peptide (pS199). Nature of the test: one point ELISA.
Description: as §1

For test [4], the target named is Tau191-214 phospho-peptide (pS202) (human, pS202 (phosphoserine); SCBio-4PEG in the ELISA). Nature of the test: one point ELISA.
Description: as §1

Test [5] concerns the target Tau191-214 phospho-peptide (pT205) (human, pT205 (phosphothreonine); SCBio-4PEG in the ELISA). Nature of the test: one point ELISA.
Description: as §1

Test [6] deals with Tau191-214 phospho-peptide (pS199/pS202) (human, pS199, pS202; SCBio-4PEG in the ELISA). As to the kind of experiment: one point ELISA.
Description: as §1

Test [7] deals with Tau191-214 phospho-peptide (pS199/pT205) (human, pS199, pT205; SCBio-4PEG in the ELISA). As to the kind of experiment: one point ELISA.
Description: as §1

Test [8] addresses T3, Enriched paired helical filament (ePHF; sarkosyl insoluble tau) (human, UniProt P10636 2-758, pathological (hyperphosphorylated) tau isolated from brain; sites not stated).
T3 construct: aggregate isolated from AD frontal cortical tissue
As to the kind of experiment: direct ELISA, coated antigen. As for the experimental part: A set of recombinant human IgG1 antibodies were prepared with clone-specific variable domain pairs selected from those presented in Table 1 and human IgG1 constant domains. These candidate antibodies were analyzed for binding to ePHF and specificity for ePHF over wild type tau by direct ELISA.
For direct ePHF and wildtype tau ELISA, plates were first coated with ePHF or wild type tau. Antigen solutions were prepared in PBS and 50 μL were pipetted into each well. Plates were covered and incubated for one hour at 37° C. or overnight at 4° C. Plates were then washed and blocked by addition of 150 μl of blocking buffer to each well and incubated one hour at room temperature. Plates were then washed before addition of serially diluted candidate antibody samples prepared in blocking buffer. Detection of candidate antibody binding was carried out by washing plates and adding a solution of enzyme-labeled secondary antibody in blocking buffer to each well. Secondary antibody binding was detected by addition of substrate and spectrophotometric analysis of resulting reaction product.

The target in test [9] is iPHF (UniProt P10636-8 2-441). As to the kind of experiment: BLI (Octet), antibody on biosensor tip. As for the experimental part:
Anti-human tau antibodies were assessed for affinity for iPHF by Octet (ForteBio, Menlo Park, CA) analysis. A set of recombinant human IgG1 antibodies were prepared with clone-specific variable domain pairs selected from those presented in Table 1 and human IgG1 constant domains. Candidate antibodies were immobilized on biosensor tips (ForteBio) in kinetic buffer (ForteBio). Biosensor tips were then washed before introduction of a solution of iPHF in kinetic buffer for analysis of association and dissociation with candidate antibodies.

Test [10] concerns the target T4, AT8 peptide (amino acids 195-215 of tau) (human, phospho-peptide; the phosphorylated sites are not stated; immobilized on streptavidin biosensor tips).
T4 peptide: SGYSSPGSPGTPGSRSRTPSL
Nature of the test: BLI (Octet), peptide on streptavidin tip. As for the experimental part: Briefly, phospho-peptides were immobilized on streptavidin biosensor tips and the binding ability of each antibody was assessed using an eight-point concentration gradient.

In test [11] the target is T5, AT270 peptide (pT181; Tau172-186) (human).
T5 peptide: PAKTPPAPK[pT]PPSSG
Nature of the test: one point ELISA.

Positions count from the first letter of the chain named. Non-standard residues stand in square brackets, D forms with d. No end group written: not given here. pT = C[C@@H](OP(=O)(O)O)[C@H](N)C(=O)O

Sequence of iPHF (P10636 other isoform, or with tags, fused parts or gaps): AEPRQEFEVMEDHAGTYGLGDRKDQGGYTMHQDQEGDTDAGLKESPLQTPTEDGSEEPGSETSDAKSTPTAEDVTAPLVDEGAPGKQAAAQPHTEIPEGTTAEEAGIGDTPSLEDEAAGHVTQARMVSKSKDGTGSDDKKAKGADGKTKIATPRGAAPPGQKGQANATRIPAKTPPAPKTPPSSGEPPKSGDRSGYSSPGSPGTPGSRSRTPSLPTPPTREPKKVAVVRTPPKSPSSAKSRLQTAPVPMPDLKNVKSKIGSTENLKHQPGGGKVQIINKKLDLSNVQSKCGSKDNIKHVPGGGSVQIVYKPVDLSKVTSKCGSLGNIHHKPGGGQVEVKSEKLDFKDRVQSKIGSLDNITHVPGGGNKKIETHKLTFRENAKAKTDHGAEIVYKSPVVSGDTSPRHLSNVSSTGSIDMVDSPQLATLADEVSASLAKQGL
T3 sequence (P10636 other isoform, or with tags, fused parts or gaps limits assumed): as the sequence (P10636 other isoform, or with tags, fused parts or gaps) above
T2 sequence (peptide, as listed by the source): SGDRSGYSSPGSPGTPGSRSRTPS

B1: VY003 (antibody, V domains shown)
VH: EVQMVESGGGLVQPGGSLTLSCAASGFTFSSYRMNWVRQAPGKGLEWVSYISSSRSAIYYADSVKGRFTISRDNAKNSLYLQMNSLRDEDTAVYYCATLGIGYWGQGTLVTVSS
VL: DIVMTQTPLSSPVTLGQPASISCRSSQSLVHSDGNTYLSWLQQRPGQPPRLLIYKISNRFSGVPDRFSGSGAGTDFTLKITRVEAEDVGIYYCMQVTQFPRTFGQGTKVEIR
B1: the binding result in test [1] is on record as “no binding”. Further, the OD450 in test [2] turned out to be 0.062 OD450 nm; in test [3], 0.065 OD450 nm; in test [4], 0.065 OD450 nm; in [5], 0.06 OD450 nm; in test [6], 0.082 OD450 nm; in [7], 0.119 OD450 nm. Also, it took 0.06 nM to reach a half-maximal effect in test [8] (EC50). In addition, the figures for the dissociation constant Kd in test [9] and in [10] were 4.6 nM and 0.0124 nM, respectively.

B2: VY011 (antibody, V domains shown)
VH: QVQLQESGPGLVKPSETLSLTCTVSGGSISNYYWTWIRQPAGKGLEWIGRVYTSGSANYNPSLKSRVTMSVDTSKNQFSLTLSSVTAADTAVYYCARDRGLYYWGQGTLVTVSS
VL: B1 VL with P12L, N58K, S61F, T81N, V96A, R101L, Q105G, R112K
In the case of B2, the binding result in test [11] is “no binding”. In addition, the OD450 in [4] and in test [5] was 0.06 OD450 nm each time. Further, in test [8], the EC50 worked out at 0.03 nM. Also, the Kd in test [9] is 2 nM; in test [10] it was 0.0089 nM.

B3: VY020 (antibody, V domains shown)
VH: EVQLVESGGGLVQPGGSLRLSCAASGFTFSSYSMNWVRQAPGKGLEWISYISSSNSTIKYADSVKGRFTISRDNAKNSLYLQMNSLRDEDTAVYYCARRSLGDYWGQGTLVIVSS
VL: EIVLTQSPATLSLSPGERATLSCRASQSVSSYLAWYLQKPGQAPRLLIYDVSNRATGIPARFSGSGSGTDFTLTISRLEPEDFAVYYCQQRRNWPYTFGQGTKLEIK
Take B3: the binding result in [1], in test [11] and in [10] was “no binding” in each case. In addition, in test [9], the Kd is 2.6 nM.

By EC50 is commonly meant the concentration at which the effect is half-maximal. By Kd is commonly meant the free concentration of one partner at which half of the binding sites on the other are occupied at equilibrium, for simple one-to-one binding. High values mean weaker binding, low ones tighter binding.
